Measurements reported in the DeepSol protein solubility set.

Assay: soluble on expression in E. coli; label from the status in PepcDB or PDB records

| Sequence | soluble on expression in E. coli |
| --- | --- |
| VTDLAGTTRLLRAQGVTAPAGFRAAGVAAGIKASGALDLALVFNEGPDYAAAGVFTRNQVKAAPVLWTQQVLTTGRLRAVILNSGGANACTGPAGFADTHATAEAVAAALSDWGTETGAIEVAVCSTGLIGDRLPMDKLLAGVAHVVHEMHGGLVGGDEAAHAIMTTDNVPKQVALHHHDNWTVGGMAKGAGMLAPSLA | soluble |
| VTGVASAMAERLKEDGNNCFKKERFGAAIDAYTEAIALSPNVPAYWTNRALCHMKRKDWTKVEEDCRKAIQLVHNSVKAHYMLGLALLQKKEFTNGVKELQRALDLGRC | not soluble |
| VVQAPTQVPGFLGDSVTLPCYLQVPNMEVTHVSQLTWARHGESGSMAVFHQTQGPSYSESKRLEFVAARLGAELRDASLRMFGLRVEDEGSYTCLFVTFPQGSRSVDIWLRVLAKPQNTAEVQKVQLTGEPVPMARCVSTGGRPPAQITWHSDLGGMPQTSQVPGFLSGTVTVTSLWILVPSSQVDGKQVTCKVEHESFEKPQLLTVSLTVYY | soluble |
| VYAILISDIHVGSKEFCENAFIKFLEWLNGNVETKEEEEIVSRVKYLIIAGDVVDGVGVYPGQYADLTIPDIFDQYEALANLLSHVPKHITMFIAPGNHDAARQAIPQPEFYKEYAKPIYKLKNAVIISNPAVIRLHGRDFLIAHGRGIEDVVGSVPGLTHHKPGLPMVELLKMRHVAPMFGGKVPIAPDPEDLLVIEEVPDVVHMGHVHVYDAVVYRGVQLVNSATWQAQTEFQKMVNIVPTPAKVPVVDIDTAKVVKVLDFSGWC | not soluble |
| VYDNDIDTGAKNTLNLDEELQLGELSLDTIRSLEKLAPFGMDNKKPVFWLHDITVTQARTMGQNGAHLKFKVKQGKASFDVVAFNKGHLLQEFQQAQGLELAVTLSVNVWNGQTTLQ | not soluble |
| WMQTSDGLRIRAGHWRPEGEVRGTVLMFPGRTEYVEKYGNAAQAFVTRGFAMLAVDWRGQGLADRLLEDRRLGHVLEFTDYQRDVAAVVELATTLDLPRPWFVVGHSMGGAIGLRAVMEGLPVAACAFTGPMWGIFFTPVMKPLSWITANLAPAIGMGHKHPATTTLEPYVQAQEFEGNSLTRDPAMYEMMRSQLAAHPELALGAPTNIWLREALAECRALSDRPSPDLPCLTFLGSHEQIVDRKAVRARMARWPRGELVEIPDGEHEVLMEAPEVRDPAYDRM | not soluble |
| YDFIDNPGFDESHSLTEMREAFLSFFEDRDHERIDPYPVAANRWRDDVLLTQASIYDFQPLVTSGTTPPPANPLCISQPCIRMQDIDNVGKTGRHTMAFEMMAHHAFNAREDIEDPEQYAYEGEVYWKNETVQYCDELFEEMGANLDEIVYIEDPWVGGGNAGPAIEVIYRGAELATLVFMSMEQDSDGEYEMKDGNRYSPMDTYIVDTGYGLERWTWMSQGTPTVYEAVYPDMIAFLKDNAGIELTDEEERIVHEAAKLAGRMDI | not soluble |
| YEKYRWSISRSGYLIILGRDASQNESIVKKYLRDKDIFLHADIIGAPATIIITQDNKTISEEDIYDAAVMAASYSKAWKVGLASVDIFWVLGNQVSKSPPSGEYLNK | not soluble |
| YHPVFSAKIEQRLIERFGVKRALVALDQPNEEAQRLQVSGLVSNYLTSTLKNGMVVTVGQGRNVSSVAHHIGVITPRDCKFVCGIGGIHPRGGMYNADHICRQLAKKYGGTSETLYAPAYAENREQKMAFMQNATVKQTLDLARKADVALVGIGDMSENSYMVDLGWFTPDEVVQSRLKQGVVGDFAGYDFFDIHGNVANTVMSDRVIGLGIEEFRPIAEVIAIAAENSKPLALLGALRTGAIDVIATSVSNALTVLNLDEQMHGNAASES | not soluble |
| YKKGIKPDLESITLCREDYESSGGKEIFLSFEDTKNDLLIGYLRLRIPNNPFRKEITDKSALIRQVHVCGQQKELEGNSKELSWQHKGYGRLLIDEAEKIAKEEFEKDQMLINSGIGVREYYKKLRYKRVGPYMGKNLK | not soluble |
| YLGEVYTAKTDDGVKIKLLRYHPPGEGVNDGVQPVVLFSGLLCNMNEYLTHTPPELKDLYKTQLPSELADWAVGDERIQQDPMLYYSLAYYLWKQGYDVWLVNYRGTGVGELKSGVGSARTSLDTWAIYDTKAAITKVYEVTGKHPVIGGHSTGGLVSYVYLQGAKFKWTFACLFKKPWCKKVVSDDDLVRERNGLTEGEETVVGVIALDPAMIPPLPKLTDLKLMWLLLDTPLYIDIRGIMNLIAKNDRLWCATTHTIDEVFELIFEMNEEYGQYSELIRDLTFTNPGNMNDELNDFLVRYVADSLYTPTLAHYNDFGTHRTAREYFENGGRSYLIVPPEPNPGKDGYYYYILNMQKVRVPFITLLSEYDALVEAEQIIRDLMEAKTPHQFDEYYIIEGTAHLDLPFGLKAPSEVFPKVGAWLEK | not soluble |
| YMVPGLWGAPLKAVSAFAPPMKTQDFNLYTNEVHAKFDDYDLGMEYARQHNKPVMLDFTGYGCVNCRKMELAVWTDPKVSSIINNDYVLITLYVDNKTPLTEPVKIMENGTERTLRTVGDKWSYLQRVKFGANAQPFYVLIDNEGNPLNKSYAYDEDISKYINFLQTGLENYRKEK | not soluble |
| YSLYNPLKEAELQIEATRAEHERNQQAYNQLQATDISRQVQHDSDATRQALQAWQNSQTELARIDSQVQYLSAQLKQTDPLTGILTRAQNLCAAQGYSADICRQVAKAADTNDLTLFETELDTYIERVEMAESELDKARQGGDAQAVETARHAYLNALNRLSRQIHSLKTGVAGIRMPNLAELISRSANTAVSEQAAYNTGRQQAGRRIDRHLTDPQQQNIWLETGTQQTDYHSGTHRPYQQTTNYAHIGIQTGITDRLSVGTILTDERTNNRFDEGVSARNRSNGAHLFVKGENGALFAAADLGYSNSRTRFTDYDGAAVRRHAWDAGINTGIKIDTGINLRPYAGIRINRSNGNRYVLDGAEINSPAQIQTTWHAGIRLDKTVELGQAKLTPAFSSDYYHTRQNSGSALSVNDRTLLQQAAHGTLHTLQIDAGYKGWNAKLHAAYGKDSNTARHKQAGIKIGYNW | not soluble |
| YYHSVIVANLAETAAEKIGANPILARIGAYYHDIGKMKRPHFFTENIRDGKNPHEDITPSLSHLVLNEHVKYGVELARKYRLPLLVEFIIPQHHGTRSQKYFYYKAKQQFEDIPEEEFRYPGPKPQFKEAAIIMLADSVEA | soluble |
